Values quoted from earlier work, collected in publication PMC6442720.

Target: laminin 10 (Homo sapiens) (UniProt O15230)

Kd: 7.9 nM
Substance: integrin α3β1 (from UniProt P26006)
